Results reported in article PMC9508855.

Tests used:
FnCas12a ΔBH [1] = molecular target: T1, FnCas12a ΔBH (Francisella novicida, UniProt A0Q7Q2 1-1300, del953-969); assay: EMSA
FnCas12a ΔBH/Δh1 [2] = molecular target: T2, FnCas12a ΔBH/Δh1 (Francisella novicida, UniProt A0Q7Q2 1-1300, del953-1000); assay: EMSA
FnCas12a Δh1 [3] = molecular target: T3, FnCas12a Δh1 (Francisella novicida, UniProt A0Q7Q2 1-1300, del972-1000); assay: EMSA
FnCas12a ΔBH [4] = molecular target: T1, FnCas12a ΔBH; assay: EMSA; remark: listed apart in the source
FnCas12a ΔBH/Δh1 [5] = molecular target: T2, FnCas12a ΔBH/Δh1; assay: EMSA; remark: listed apart in the source
FnCas12a ΔΔBH = FnCas12a ΔΔBH (Francisella novicida, UniProt A0Q7Q2 1-1300, del953-971); assay: EMSA
FnCas12a Δh1 [6] = molecular target: T3, FnCas12a Δh1; assay: EMSA; remark: listed apart in the source
FnCas12a WT = FnCas12a WT (Francisella novicida, UniProt A0Q7Q2 1-1300); assay: mass photometry

In the case of AAUUUCUACUGUUGUAGAUGUGAUAAGUGGAAUGCCAUGUGGG (structured_RNA) [crRNA-Cy5 (43 nt)], the binding signal (FnCas12a ΔBH [1]) is reported as ~50 % of WT, the binding signal (FnCas12a ΔBH/Δh1 [2]) is reported as 22.9 % of WT and the binding signal (FnCas12a Δh1 [3]) is reported as 10.7 % of WT.

B1: crRNA + 58 bp target DNA MM 0 (labeled) (mixed)
RNA: AAUUUCUACUGUUGUAGAUGUGAUAAGUGGAAUGCCAUGUGGG
DNA 1: ACTCAATTTTGACAGCCCACATGGCATTCCACTTATCACTAAAGGCATCCTTCCACGT
DNA 2: ACGTGGAAGGATGCCTTTAGTGATAAGTGGAATGCCATGTGGGCTGTCAAAATTGAGT
B1: binds (FnCas12a ΔBH [4]); no binding (FnCas12a ΔBH/Δh1 [5]); no binding (FnCas12a ΔΔBH). B1: no binding (FnCas12a Δh1 [6]).

AAUUUCUACUGUUGUAGAUGUGAUAAGUGGAAUGCCAUGUGGG (structured_RNA) [crRNA (43 nt)]: binds (FnCas12a WT).
